{
  "source": "patent US20110124006A1",
  "about": "“METHOD FOR SCREENING OF THERAPEUTIC AGENT FOR CANCER” (Hismitsu Pharmaceutical Co., Inc., priority 2008, published 2011)",
  "molecules": {"B1": {"name": "epidermal growth factor (protein, UniProt P01133 23-1207, looked up)", "Pro-epidermal growth factor": "PQHWSCPEGTLAGNGNSTCVGPAPFLIFSHGNSIFRIDTEGTNYEQLVVDAGVSVIMDFHYNEKRIYWVDLERQLLQRVFLNGSRQERVCNIEKNVSGMAINWINEEVIWSNQQEGIITVTDMKGNNSHILLSALKYPANVAVDPVERFIFWSSEVAGSLYRADLDGVGVKALLETSEKITAVSLDVLDKRLFWIQYNREGSNSLICSCDYDGGSVHISKHPTQHNLFAMSLFGDRIFYSTWKMKTIWIANKHTGKDMVRINLHSSFVPLGELKVVHPLAQPKAEDDTWEPEQKLCKLRKGNCSSTVCGQDLQSHLCMCAEGYALSRDRKYCEDVNECAFWNHGCTLGCKNTPGSYYCTCPVGFVLLPDGKRCHQLVSCPRNVSECSHDCVLTSEGPLCFCPEGSVLERDGKTCSGCSSPDNGGCSQLCVPLSPVSWECDCFPGYDLQLDEKSCAASGPQPFLLFANSQDIRHMHFDGTDYGTLLSQQMGMVYALDHDPVENKIYFAHTALKWIERANMDGSQRERLIEEGVDVPEGLAVDWIGRRFYWTDRGKSLIGRSDLNGKRSKIITKENISQPRGIAVHPMAKRLFWTDTGINPRIESSSLQGLGRLVIASSDLIWPSGITIDFLTDKLYWCDAKQSVIEMANLDGSKRRRLTQNDVGHPFAVAVFEDYVWFSDWAMPSVMRVNKRTGKDRVRLQGSMLKPSSLVVVHPLAKPGADPCLYQNGGCEHICKKRLGTAWCSCREGFMKASDGKTCLALDGHQLLAGGEVDLKNQVTPLDILSKTRVSEDNITESQHMLVAEIMVSDQDDCAPVGCSMYARCISEGEDATCQCLKGFAGDGKLCSDIDECEMGVPVCPPASSKCINTEGGYVCRCSEGYQGDGIHCLDIDECQLGEHSCGENASCTNTEGGYTCMCAGRLSEPGLICPDSTPPPHLREDDHHYSVRNSDSECPLSHDGYCLHDGVCMYIEALDKYACNCVVGYIGERCQYRDLKWWELRHAGHGQQQKVIVVAVCVVVLVMLLLLSLWGAHYYRTQKLLSKNPKNPYEESSRDVRSRRPADTEDGMSSCPQPWFVVIKEHQDLKNGGQPVAGEDGQAADGSMQPTSWRQEPQLCGMGTEQGCWIPVSSDKGSCPQVMERSFHMPSYGTQTLEGGVEKPHSLLSANPLWQQRALDPPHQMELTQ", "modifications": "Pro-epidermal growth factor", "notes": "epidermal growth factor, purchased from Sigma"}},
  "key": {"[1]": {"test_system": "SK-N-BE cells, NLF cells, SH-SY5Y cells, SMS-SAN cells", "test": "MTT assay, EGF-induced proliferation of neuroblastoma-derived cells", "assay_type": "cell-based", "settings": "SK-N-BE, NLF, SH-SY5Y, SMS-SAN cells, 10 ng/ml EGF", "experimental": "SK-N-BE cells, NLF cells, SH-SY5Y cells, SMS-SAN cells, which are cell lines derived from neuroblastoma, and SK-N-BE cells into which siRNA against NLRR1 was introduced were cultured in the presence and absence of 10 ng/ml EGF, and the cell proliferation was quantified by the MTT assay over time. FIG. 28 is a graph showing the cell proliferation, showing the change fold ratio of the proliferation of cells in the presence of EGF to the proliferation of cells in the absence of EGF."}, "[2]": {"test_system": "MYCN expression", "test": "Immunoblot of MYCN expression in SK-N-BE cells treated with EGF", "assay_type": "cell-based", "experimental": "A neuroblastoma cell line SK-N-BE was cultured for 10 hours in media containing EGF at a variety of concentrations, by using an anti-phosphorylated EGFR antibody, an anti-EGFR antibody, an anti-MYCN antibody and an anti-actin antibody, the phosphorylation of an EGF receptor and the expression of MYCN were analyzed by an immunoblot method. FIG. 19 is a photograph showing a result of immunoblot. […] FIG. 20 is a photograph in which SK-N-BE cells were cultured in a medium containing 10 ng/ml EGF for different periods of time and the expression of MYCN was analyzed by an immunoblot method using an anti-MYCN antibody and an anti-actin antibody. […] From the above-mentioned results, it is thought that the following positive feed-back mechanism is present. That is to say, by EGF treatment, an EGFR signal is activated and the expression of MYCN is promoted. Next, by MYCN, transcription of NLRR1 is promoted. Next, the expression of NLRR1 is increased and activated. Next, by NLRR1, an EGFR signal is activated. Next, the expression of MYCN is further promoted."}},
  "data": [
    {"molecule": "B1", "values": [
      {"measurement": "proliferation of cells (MTT assay, fold ratio with vs without EGF)", "setting": "[1]", "result": "the proliferation of cells derived from neuroblastoma is promoted"},
      {"measurement": "expression of MYCN (immunoblot), time course", "setting": "[2]; 10 ng/ml EGF, different periods of time", "result": "Increased expression of MYCN by EGF over time"},
      {"measurement": "expression of MYCN (immunoblot), EGF concentration dependence", "setting": "[2]; 10 hours, EGF at a variety of concentrations", "result": "the expression of MYCN is increased depending upon the concentration of EGF"}
    ]}
  ]
}
